The values that follow come from publication PMC5679434 (Nature methods, 2017).

This assay addresses Thermoplasma acidophilum 20S proteasome α-subunit (Thermoplasma acidophilum, UniProt P25156 1-233). The assay can be described thus: cryo-EM structure.

Sequence of Thermoplasma acidophilum 20S proteasome α-subunit (P25156 whole entry): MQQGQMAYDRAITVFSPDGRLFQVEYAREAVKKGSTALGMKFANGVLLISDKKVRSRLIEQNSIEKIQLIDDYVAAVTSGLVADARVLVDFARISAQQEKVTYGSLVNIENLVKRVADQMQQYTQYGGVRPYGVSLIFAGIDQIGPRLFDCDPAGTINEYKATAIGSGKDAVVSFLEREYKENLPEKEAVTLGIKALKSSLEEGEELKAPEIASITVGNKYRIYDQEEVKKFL

B1: Thermoplasma acidophilum 20S proteasome β-subunit (natural protein, UniProt P28061 9-211, looked up)
chain: TTTVGITLKDAVIMATERRVTMENFIMHKNGKKLFQIDTYTGMTIAGLVGDAQVLVRYMKAELELYRLQRRVNMPIEAVATLLSNMLNQVKYMPYMVQLLVGGIDTAPHVFSIDAAGGSVEDIYASTGSGSPFVYGVLESQYSEKMTVDEGVDLVIRAISAAKQRDSASGGMIDVAVITRKDGYVQLPTDQIESRIRKLGLIL
On to B1, for which the binding result was “binds”.
